Our source for the Kd values is paper PMC3248438, “Probing the SELEX Process with Next-Generation Sequencing”.

The data set has as its target Streptavidin (UniProt P22629 25-183). Kind of data set: SPR; kon 1.5e4 M-1 s-1, koff 2.2e-3 s-1; 1:1 Langmuir fit, chi2 0.535; 900 RU chip; Binding buffer 20 mM Tris, 140 mM NaCl, 5 mM MgCl2, 2 mM CaCl2, 2 mM KCl, 0.05% Tween 20, pH 7.4; SPR at 25 C, 30 ul/min; FLAA 1 h at room temperature. The note with it: protein: commercial; chain copies: 4.

Sequence of Streptavidin (P22629 25-183): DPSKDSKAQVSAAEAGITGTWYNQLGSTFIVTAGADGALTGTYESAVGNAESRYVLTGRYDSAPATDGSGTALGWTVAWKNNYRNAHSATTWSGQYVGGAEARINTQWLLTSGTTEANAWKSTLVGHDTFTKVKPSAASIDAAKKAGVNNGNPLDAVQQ

B1: R10#17 (ssDNA)
DNA: ATCTCCGATTGCCCCACGACGCAGTGGTCGGAGTTACTTT
Turning to B1, the Kd amounted to 140 nM. That is a sub-micromolar value.
